A short description of series [1]: Stability testing of peptides at pH 4.5 (sodium acetate buffer), HPLC Method B. It is filed as physicochemical. As to the method: (§1) Analytical high performance liquid chromatography (HPLC) was performed on a Dionex UltiMate 3000 HPLC system with a Bruker amazon SL ion trap mass spectrometer and detection by UV (diode array detector, 214, 254, and 280 nm) and electrospray ionization (ESI) MS using a Penomenex Kinetex C18 column (50×3.0 mm, 2.6 μm particle size, 100 Åpore size) and a Penomenex Kinetex Biphenyl column (50×4.6 mm, 2.6 μm particle size, 100 Åpore size). A gradient of H2O/CH3CN/0.05% HCOOH was used at a flow rate of 1.5 mL/min.
Method B: Detection at 214 nm
For the peptides stored in sodium acetate buffer (pH 4.5, 100 mM) the solutions were analyzed by HPLC (analytical HPLC Method B) after 0 h, and 1 day incubation at 4° C. and 23° C.
(§2) The “% Purity” at each time point is defined by the % Relative purity at time point “n” (n=1 day, 7 days, 14 days in pH 7.4 PBS and 1 day at pH 4.5 NaAc) in relation to the % Relative purity at t0 following the equation:
% Purity at tn=[(% Relative purity tn)×100)]/% Relative purity t0
Samples were incubated for 1 day at 23° C. and 4° C. and were analyzed using HPLC Method B.

Series [2] is described as follows: Stability testing of peptides at pH 7.4 (PBS), HPLC Method B. It is filed as physicochemical. As to the method: as §1
Method B: Detection at 214 nm column: Penomenex Kinetex Biphenyl column (50×4.6 mm, 2.6 μm particle size, 100 Åpore size) solvent: H2O+0.05% HCOOH: CH3CN+0.05% HCOOH (flow 1.5 ml/min) […]
(§3) For stability testing, 500 μmol pure compound was dissolved in 1 mL PBS buffer (pH 7.4), or 1 mL sodium acetate buffer (pH 4.5, 100 mM). For the peptides stored in PBS, the solutions were stored for 14 days at 4° C. and 23° C. At 0 h, 1 day, 7 days and 14 days, the solutions were analyzed by HPLC (analytical HPLC Method A and Method B).
as §2
(§4) % Purity at tn=[(% Relative purity tn)×100)]/% Relative purity t0 […]
Samples were incubated up to 14 days at 23° C. and 4° C. and were analyzed using HPLC Method B.

Series [3] in a line: Stability testing of peptides at pH 7.4 (PBS), HPLC Method A. Format: physicochemical. As for the experimental part:
as §1
Method A: Detection at 214 nm column: Penomenex Kinetex C18 (50×3.0 mm, 2.6 μm particle size, 100 Åpore size) solvent: H2O+0.05% HCOOH: CH3CN+0.05% HCOOH (flow 1.5 ml/min) […]
as §3, §2, §4
Samples were incubated up to 14 days at 23° C. and 4° C. and were analyzed using HPLC Method A.

The next series is described as follows: in vivo. Also on record: species or system Sprague Dawley rats. As to conditions: rat. As for the experimental part: Sprague Dawley rats (obtained from Taconic, n=22, male, healthy, weight 287±25 g) were used for ex vivo organ distribution assessment of biodistribution and dosimetry.
Five MBq of [^68Ga]Ga-1 (n=10) (corresponding to 5-10 μg) in phosphate-buffered saline (PBS, pH 7.4) was injected intravenously as a bolus to conscious rats. The animals were euthanized by a CO2—O2 mixture 10, 20, 40, 60 and 120 minutes post-injection. The radioactivity of the excised organs was measured in a gamma counter. Samples from blood, heart, lung, liver, spleen, adrenal glands, kidneys, intestines, with or without contents, muscle, testis, bone, brain, pancreas, urine bladder and bone marrow were collected. The remaining carcass was also measured in order to monitor the radioactivity elimination and recovery. The radioactivity readings were decay-corrected to the time of the injection, and the results were expressed as standardized uptake values (SUV).
The biodistribution of [^68Ga]Ga-1 ([^68Ga]Ga—NH—(CH2CH2O)2—CH2—C(O)-LRELHLNNN—OH) was carried out as described above.

The conditions of series [4]: mouse, in vivo; cited from earlier work.
The conditions of series [5]: rat, in vivo; cited from earlier work.
[6] abbreviates: male, Sprague Dawley, iv, 5 MBq, total radioactivity.

Like-named read-outs stand apart in the source and are kept apart here.

The text below walks through data of patent US20230295227A1, “COMPOUNDS FOR USE IN DIAGNOSIS AND/OR MONITORING OF FIBROSIS” (ANTAROS TRACER AB, priority 2020, published 2023).

In the case of `CC(C)C[C@H](NC(=O)COCCOCCNC(=O)CN1CCN(CC(=O)O)CCN(CC(=O)O)CCN(CC(=O)O)CC1)C(=O)N[C@@H](CCCNC(=N)N)C(=O)N[C@@H](CCC(=O)O)C(=O)N[C@@H](CC(C)C)C(=O)N[C@@H](Cc1c[nH]cn1)C(=O)N[C@@H](CC(C)C)C(=O)N[C@@H](CC(N)=O)C(=O)N[C@@H](CC(N)=O)C(=O)N[C@@H](CC(N)=O)C(=O)O` [Compound 1, DOTA-NH—(CH2CH2O)2—CH2—C(O)-L-R-E-L-H-L-N—N—N—OH], the “% Purity after 1 day” value in series [1] (4° C.) is recorded as over 95%; in series [1] (23° C.), over 96%; in series [2] (4° C.), 100%; in series [2] (23° C.), over 99%; in series [3] (4° C.), over 99%; in series [3] (23° C.), over 99%. The “% Purity after 7 days” value is given as over 98% in series [2] (4° C.), over 98% in series [2] (23° C.), over 99% in series [3] (4° C.) and over 98% in series [3] (23° C.). The “% Purity after 14 days” value in series [2] (4° C.) is reported as over 96%; in series [2] (23° C.) it was over 97%; in series [3] (4° C.) it was over 99%; in series [3] (23° C.) it was over 97%.
Turning to `CC(C)C[C@H](NC(=O)COCCOCCNC(=O)CN1CCN(CC(=O)O)CCN(CC(=O)O)CCN(CC(=O)O)CC1)C(=O)N[C@@H](CCCNC(=N)N)C(=O)N[C@@H](CCC(=O)O)C(=O)N[C@@H](CC(C)C)C(=O)N[C@@H](Cc1c[nH]cn1)C(=O)N[C@@H](CC(C)C)C(=O)N[C@@H](CC(N)=O)C(=O)N[C@@H](CC(N)=O)C(=O)N[C@@H](CC(N)=O)C(=O)O` [[^68Ga]Ga-1, [^68Ga]Ga-DOTA-NH—(CH2CH2O)2—CH2—C(O)-LRELHLNNN—OH, metal not drawn], in “in vivo” (setting [6]), the SUV at 1 h is under 1 SUV and the SUV at 2 h was 1 SUV. Also, in “in vivo”, the “SUV Kidney” value turned out to be 1.7 and the “SUV Liver” value is on record as 0.7.
Turning to DOTA-L-R-E-L-H-L-N—N—N—OH [Compound 12], the “% Purity after 1 day” value in series [1] (4° C.) is recorded as over 98%; in series [1] (23° C.), over 98%; in series [2] (4° C.), over 99%; in series [2] (23° C.), over 99%; in series [3] (4° C.), over 99%; in series [3] (23° C.), over 99%. Moreover, the “% Purity after 7 days” value in series [2] (4° C.) is reported as over 99%; in series [2] (23° C.) it was over 95%; in series [3] (4° C.) it was over 99%; in series [3] (23° C.) it was over 96%.
Regarding “DOTA-NH—(CH2CH2O)2—CH2—C(O)-L-R-E-L-H—V-N—N—N—OH [Compound 6]”, the “% Purity after 1 day” value in series [1] (4° C.) is over 99%; in series [1] (23° C.) it was over 99%; in series [2] (4° C.), over 99%; in series [2] (23° C.) it was over 99%; in series [3] (4° C.) it was over 99%; in series [3] (23° C.), 100%. Also, the “% Purity after 7 days” value in series [2] (4° C.), in series [2] (23° C.), in series [3] (4° C.) and in series [3] (23° C.) was over 99% in each case.
With “DOTA-NH—(CH2CH2O)3—CH2—C(O)-L-R-E-L-H-L-N—N—N—OH [Compound 11]”, the “% Purity after 1 day” value in series [1] (4° C.) was over 99%; in series [1] (23° C.) it was over 98%; in series [2] (4° C.) it was over 99%; in series [2] (23° C.) it was over 99%; in series [3] (4° C.) it was over 99%; in series [3] (23° C.) it was over 99%. For the same molecule, the “% Purity after 7 days” value was over 99% in series [2] (4° C.), over 99% in series [2] (23° C.), over 97% in series [3] (4° C.) and over 96% in series [3] (23° C.).
As to “H2N-L-R-E-L-H-L-N—N—N—K(DOTA-NH—(CH2CH2O)2—CH2—C(O))—NH2 [Compound 13]”, the “% Purity after 1 day” value was over 99% in series [1] (4° C.); over 99% in series [1] (23° C.); over 99% in series [2] (4° C.); over 99% in series [2] (23° C.); 100% in series [3] (4° C.); 100% in series [3] (23° C.). For the same molecule, the “% Purity after 7 days” value in series [2] (4° C.) was over 99%; in series [2] (23° C.), over 99%; in series [3] (4° C.), 100%; in series [3] (23° C.) it was 100%.
“[^68Ga]Ga-DOTA-CBP8 [Comparative Tracer 1]”: in series [4], the “SUV Kidney” value is reported as 10 and the “SUV Liver” value is reported as 0.4.
“[^68Ga]Ga-NODAGA-Collagelin [Comparative Tracer 3]”: in series [5], the “SUV Kidney” value is reported as 11.1 and the “SUV Liver” value was 0.8.
In the case of “[^68Ga]Ga-NOTA-Collagelin [Comparative Tracer 2]”, in series [5], the “SUV Kidney” value was 6.2 and the “SUV Liver” value is 0.5. Besides, the “SUV Kidney” value in series [4] is on record as 10.
